Reference: the supplement of paper PMC10899765

Assays:
Settings in all cases: 20 nM; 72 h
MCF10A [1] = experiment: one-nucleolus phenotype percent effect (relative to siNT 0% and siNOL11 100%); higher = more cells with one nucleolus (ribosome biogenesis inhibition)
Procedure: (§1)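 After 72 h, cells were fixed and stained with Hoechst and anti-fibrillarin, and nucleoli per nucleus were counted with CellProfiler. Values are plate-adjusted percent effect for the one-nucleolus and 5+ nucleoli phenotypes, normalised to siNT (0%) and to the positive controls siNOL11 or siKIF11 (100%), as the mean of biological triplicates. Percent viability is the nuclei count relative to siNT.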

MCF10A [2] = experiment: 5+ nucleoli phenotype percent effect (relative to siNT 0% and siKIF11 100%); higher = more cells with five or more nucleoli
Procedure: as §1

MCF10A [3] = experiment: percent viability (nuclei count relative to siNT); higher = more viable cells
Procedure: as §1

Sequence	one-nucleolus phenotype percent effect (MCF10A [1]) [%]	5+ nucleoli phenotype percent effect (MCF10A [2]) [%]	percent viability (MCF10A [3]) [%]
AGGCACGGUGUCAGCAGGC [hsa-miR-564]	11.4	-12.9	67.8
AGGCAGCGGGGUGUAGUGGAUA [hsa-miR-885-3p]	61.2	-36.7	19.2
AGGCAGGGGCUGGUGCUGGGCGGG [hsa-miR-4763-3p]	9.32	5.7	52.2
AGGCAGGUUAUCUGGGCUG [hsa-miR-4736]	19.8	13.2	12
AGGCAGUGUAGUUAGCUGAUUGC [hsa-miR-34c-5p]	38.8	-6.79	13.2
AGGCAGUGUAUUGUUAGCUGGC [hsa-miR-449b-5p]	-25.7	36.8	128
AGGCAUGGGAGGUCAGGUGA [hsa-miR-3622b-5p]	32.5	-30.6	16.5
AGGCAUUGACUUCUCACUAGCU [hsa-miR-1256]	1.57	2.63	32.9
AGGCCAUCAGCAGUCCAAUGAA [hsa-miR-4529-5p]	2.62	9.36	52.1
AGGCCCUGUCCUCUGCCCCAG [hsa-miR-6775-3p]	12.8	11.1	41.3
AGGCCUCUGUGACGUCACGGUGU [hsa-miR-4757-5p]	-11.7	66.8	62.5
AGGCCUGUGGCUCCUCCCUCAG [hsa-miR-6735-3p]	-1.31	15.7	50.4
AGGCGAUGUGGGGAUGUAGAGA [hsa-miR-6717-5p]	19.4	-15.8	30.5
AGGCGCACCCGACCACAUGC [hsa-miR-6722-5p]	26.5	-18.7	22.4
AGGCGGGGCGCCGCGGGACCGC [hsa-miR-663a]	0.191	2.91	62.8
AGGCUCUAACUGGCUUUCCCUGCA [hsa-miR-6822-3p]	32.4	-24.9	37.9
AGGCUGCGGAAUUCAGGAC [hsa-miR-604]	29.2	-15.7	25.6
AGGCUGGAGUGAGCGGAG [hsa-miR-4430]	57.5	-22	12.7
AGGCUGGGCUGGGACGGA [hsa-miR-4505]	32.2	21.9	12.3
AGGCUGUGAUGCUCUCCUGAGCCC [hsa-miR-7974]	30.5	-12	22.8

Sequence	one-nucleolus phenotype percent effect (MCF10A [1]) [%]	5+ nucleoli phenotype percent effect (MCF10A [2]) [%]	percent viability (MCF10A [3]) [%]
AGGGAAAAAAAAAAGGAUUUGUC [hsa-miR-4668-5p]	-20.9	61.6	65
AGGGAAGGAGGCUUGGUCUUAG [hsa-miR-4747-5p]	-5.76	11.6	29.6
AGGGAAGGGGACGAGGGUUGGG [hsa-miR-5196-5p]	5.32	4.34	40.5
AGGGACCUGAGUGUCUAAG [hsa-miR-3649]	9.08	-0.628	71
AGGGACGGGACGCGGUGCAGUG [hsa-miR-92b-5p]	2.12	34.3	75.4
AGGGACUGCCUUAGGAGAAAGUU [hsa-miR-3199]	-15.3	42.9	57.4
AGGGACUUUCAGGGGCAGCUGU [hsa-miR-365b-5p]	4.45	19.9	36.2
AGGGACUUUUGGGGGCAGAUGUG [hsa-miR-365a-5p]	-13.1	58.6	56
AGGGAGAAAGCUAGAAGCUGAAG [hsa-miR-6878-5p]	-18.3	44.5	72.6
AGGGAGGGACGGGGGCUGUGC [hsa-miR-149-3p]	42.9	-16.6	15.1
AGGGAGGGUGUGGUAUGGAUGU [hsa-miR-6883-5p]	8.82	-4.87	42
AGGGAUCGCGGGCGGGUGGCGGCCU [hsa-miR-638]	-7.05	9.85	88
AGGGCAUAGGAGAGGGUUGAUAU [hsa-miR-3945]	-1.06	34.8	27.2
AGGGCAUGUCCAGGGGGU [hsa-miR-4253]	18.3	17.7	28.5
AGGGCCAGAGGAGCCUGGAGUGG [hsa-miR-4726-5p]	5.63	18.8	50.1
AGGGCCCCCCCUCAAUCCUGU [hsa-miR-296-5p]	2.62	11.6	49.5
AGGGCCGAAGGGUGGAAGCUGC [hsa-miR-6877-5p]	10.5	-6.96	41.7
AGGGCUGGACUCAGCGGCGGAGCU [hsa-miR-5001-5p]	23.3	-6.45	42.6
AGGGCUUAGCUGCUUGUGAGCA [hsa-miR-27a-5p]	23.8	-11.3	19.8
AGGGGACCAAAGAGAUAUAUAG [hsa-miR-3144-5p]	-9.41	33.4	38.1

Sequence	one-nucleolus phenotype percent effect (MCF10A [1]) [%]	5+ nucleoli phenotype percent effect (MCF10A [2]) [%]	percent viability (MCF10A [3]) [%]
AGGGGACUGGUUAAUAGAACUA [hsa-miR-4652-5p]	47.2	-5.22	14.5
AGGGGCUGGCUUUCCUCUGGUC [hsa-miR-185-3p]	49.9	-3.46	22.6
AGGGGGAAAGUUCUAUAGUCC [hsa-miR-625-5p]	21.3	-16.9	12.6
AGGGGGAUGGCAGAGCAAAAUU [hsa-miR-5010-5p]	13.7	-7.77	44.2
AGGGGGCGCAGUCACUGACGUG [hsa-miR-4697-5p]	5.16	-0.0636	18.2
AGGGGGCGGGCUCCGGCG [hsa-miR-4488]	-5.44	8.35	70.5
AGGGGGGCACUGCGCAAGCAAAGCC [hsa-miR-6885-5p]	16.6	-29.8	42.5
AGGGGGUAGAAAGUGGCUGAAG [hsa-miR-6835-5p]	11.4	-24.3	14.9
AGGGGUGCUAUCUGUGAUUGA [hsa-miR-342-5p]	15.1	-43.4	10.5
AGGGGUGGUGUUGGGACAGCUCCGU [hsa-miR-608]	8.02	-9.99	10.6
AGGGGUGUGGAAAGAGGCAGAACA [hsa-miR-6747-5p]	-4.28	37.7	40
AGGGUAAGCUGAACCUCUGAU [hsa-miR-555]	17.6	-11.2	32.4
AGGGUGGGGCUGGAGGUGGGGCU [hsa-miR-6756-5p]	3.98	-11	42
AGGGUGUGUGUGUUUUU [hsa-miR-4455]	3.96	13.6	22.4
AGGGUGUUUCUCUCAUCUCU [hsa-miR-609]	-18.6	53.7	74
AGGUAGAAUGAGGCCUGACAU [hsa-miR-4650-3p]	7.9	-12.9	33.4
AGGUAGACUGGGAUUUGUUGUU [hsa-miR-3529-5p]	27.4	-26.7	21.7
AGGUCUGCAUUCAAAUCCCCAGA [hsa-miR-6503-5p]	3.05	10.7	43.4
AGGUGCUCCAGGCUGGCUCACA [hsa-miR-3907]	27.7	-22.2	4.87
